According to paper PMC11598966:

Key:
[1] = target: Rhinovirus C15 (RV-C15) virus particles (rhinovirus C15); test: ELISA; RV-C15 coated on the plate; native SP-A or recombinant SP-A variants at a single concentration of 10 µg/mL, with 5 mM CaCl2; A490 nm
[2] = target: Rhinovirus C15 (RV-C15) virus particles (rhinovirus C15); test: ELISA
[3] = target: Rhinovirus C15 (RV-C15) virus particles (rhinovirus C15)

| Substance | A490nm at 10 µg/mL [1] [A490nm] | A490nm at 10 µg/mL [2] [A490nm] | RV-C15-GFP viral copy numbers in NECs at 48 h with rSP-A2 [A91, K223] at 400 µg/mL, percent of RV-C15-GFP infection control (% of RV-C15-GFP infection control) [3] | RV-C15-GFP viral copy numbers in NECs at 48 h with rSP-A2 [A91, Q223] at 400 µg/mL, percent of RV-C15-GFP infection control (% of RV-C15-GFP infection control) [3] |
| --- | --- | --- | --- | --- |
| Recombinant SP-A2 [P91, K223] (from UniProt Q8IWL1 21-248) (natural protein) | 1.67 |  |  |  |
| Recombinant SP-A2 [P91, Q223] (from UniProt Q8IWL1 21-248) (natural protein) |  | 1.61 |  |  |
| Native surfactant protein A (SP-A) (from UniProt Q8IWL2 21-248; Q8IWL1 21-248) (complex) |  | 2.01 |  |  |
| Recombinant SP-A2 [A91, K223] (from UniProt Q8IWL1 21-248) (natural protein) | 1.19 |  | 40.2 |  |
| Recombinant SP-A2 [A91, Q223] (from UniProt Q8IWL1 21-248) (natural protein) | 0.19 |  |  | 54.8 |
